Laboratory results: US20220235126A1
Values belong to the substance of their own block, whether it stands above or below them.

Tests used:
[1] = biological target: hTSLPR and hIL-7R on Baf3 cells (human) (UniProt Q9HC73)
[2] = biological target: hTSLPR and hIL-7R on Baf3 cells (human) (UniProt Q9HC73); remark: listed apart in the source
[3] = biological target: hTSLPR and hIL-7R on Baf3 cells (human) (UniProt Q9HC73); experiment: cell-based or functional assay
human FcRn-mmh (human) = human FcRn-mmh (human) (UniProt P55899); experiment: SPR, hFcRn.mmh captured, 25 C, pH 7.4; kinetics inconclusive
Sequence of UniProt P55899 (P55899 24-297): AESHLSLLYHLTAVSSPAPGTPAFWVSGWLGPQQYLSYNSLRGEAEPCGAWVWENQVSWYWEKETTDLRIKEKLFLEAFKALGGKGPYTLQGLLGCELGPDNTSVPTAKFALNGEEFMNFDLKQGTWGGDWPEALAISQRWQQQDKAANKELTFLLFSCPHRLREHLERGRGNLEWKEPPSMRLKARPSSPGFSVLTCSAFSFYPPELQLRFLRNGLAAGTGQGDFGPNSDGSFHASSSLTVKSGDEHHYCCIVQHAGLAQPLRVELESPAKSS

Sequence of UniProt Q9HC73 (Q9HC73 23-371, chain 1 of 2): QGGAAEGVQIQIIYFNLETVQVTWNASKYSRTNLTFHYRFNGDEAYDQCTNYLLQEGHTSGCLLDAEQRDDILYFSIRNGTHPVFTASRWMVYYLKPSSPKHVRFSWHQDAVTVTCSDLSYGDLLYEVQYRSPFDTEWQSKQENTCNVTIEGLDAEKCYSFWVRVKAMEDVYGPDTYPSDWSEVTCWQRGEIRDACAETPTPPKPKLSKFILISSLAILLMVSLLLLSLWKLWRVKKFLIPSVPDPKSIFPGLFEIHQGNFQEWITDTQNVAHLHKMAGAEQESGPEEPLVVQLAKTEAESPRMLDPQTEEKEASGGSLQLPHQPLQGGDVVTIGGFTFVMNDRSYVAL
Sequence of UniProt Q9HC73 (P16871 21-459, chain 2 of 2, further chain): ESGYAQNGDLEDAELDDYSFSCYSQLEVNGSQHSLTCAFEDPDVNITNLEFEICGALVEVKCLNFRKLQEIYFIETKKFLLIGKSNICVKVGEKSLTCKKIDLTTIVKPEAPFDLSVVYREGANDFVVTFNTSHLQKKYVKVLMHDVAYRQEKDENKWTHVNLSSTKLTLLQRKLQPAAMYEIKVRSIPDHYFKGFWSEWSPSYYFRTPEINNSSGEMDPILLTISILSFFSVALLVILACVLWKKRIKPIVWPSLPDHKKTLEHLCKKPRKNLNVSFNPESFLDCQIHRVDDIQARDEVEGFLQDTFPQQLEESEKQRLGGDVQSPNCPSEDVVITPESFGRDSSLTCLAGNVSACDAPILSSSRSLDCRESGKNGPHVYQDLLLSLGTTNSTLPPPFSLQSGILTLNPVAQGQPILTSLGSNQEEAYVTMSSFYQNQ

EC50, STAT3-luciferase dose response of hTSLP mmh in BAF3/hIL7R/hTSLPR/Stat3-Luc cells [1]: 61.3 pM
EC50 of hTSLP mmh in the Stat3-Luc reporter assay (number only, curve not drawn) [2]: 75 pM
Substance: REGN4009, recombinant hTSLP.mmh (from UniProt Q969D9 29-159) (ligand)

hTSLP EC50 [M], STAT3-Luciferase reporter assay [3]: 4.35e-11 M
Substance: human TSLP (hTSLP) (from UniProt Q969D9 29-159) (ligand)

5 uM mAb Bound (RU) (human FcRn-mmh (human)): 9.1 RU
Substance: REGN1932, anti-FelD1 IgG1 isotype control (antibody)

5 uM mAb Bound (RU) (human FcRn-mmh (human)): 8 RU
Substance: REGN1945, anti-fel d 1 IgG4 isotype control (antibody)
